Test results as given in patent US20250368745A1 (published 2025).
Changes are numbered by the printed parent chain. Names may count otherwise.

B1: SA301a LC-Y91M (antibody, name in Kabat numbering, V domains shown)
VH: QVQLQESGPGLVKPSQTLSLTCTVSGYSITSDYNSHWIRQPPGKGLEWIGYIHYSGSTNYNPSLKSRVTISRDTSKNQFSLKLSSVTAADTAVYYCARNYGSIYVNYFDYWGQGTLVTVSS
VL: EIVLTQSPATLSLSPGERATLSCSASSSVSYMYWYQQKPGQAPRPLIYRTSNLASGIPARFSGSGSGTDFTLTISSLEPEDFAVYYCQQMHSYPTFGGGTKVEIK
notes: IgG1 kappa
B2: SA301a LC-H92E (antibody, V domains shown)
VH: B1 VH
VL: B1 VL with M90Y, H91E
B3: SA301a LC-S93F (antibody, V domains shown)
VH: B1 VH
VL: B1 VL with M90Y, S92F
B4: SA301a LC-S93I (antibody, V domains shown)
VH: B1 VH
VL: B1 VL with M90Y, S92I
B5: SA301a LC-Q89K (antibody, V domains shown)
VH: B1 VH
VL: B1 VL with Q88K, M90Y
B6: SA301a LC-Q89E (antibody, V domains shown)
VH: B1 VH
VL: B1 VL with Q88E, M90Y
B7: SA301a LC-S93Q (antibody, V domains shown)
VH: B1 VH
VL: B1 VL with M90Y, S92Q
B8: SA301a LC-Q89F (antibody, V domains shown)
VH: B1 VH
VL: B1 VL with Q88F, M90Y
B9: SA301a LC-Q89A (antibody, V domains shown)
VH: B1 VH
VL: B1 VL with Q88A, M90Y
B10: SA301a LC-Q89M (antibody, V domains shown)
VH: B1 VH
VL: B1 VL with Q88M, M90Y
B11: SA301a LC-H92Y (antibody, V domains shown)
VH: B1 VH
VL: B1 VL with M90Y, H91Y
B12: SA301a LC-H92A (antibody, V domains shown)
VH: B1 VH
VL: B1 VL with M90Y, H91A
B13: SA301a LC-S93V (antibody, V domains shown)
VH: B1 VH
VL: B1 VL with M90Y, S92V
B14: SA301a LC-Q89S (antibody, V domains shown)
VH: B1 VH
VL: B1 VL with Q88S, M90Y
B15: SA301a LC-H92F (antibody, V domains shown)
VH: B1 VH
VL: B1 VL with M90Y, H91F
B16: SA301a LC-S93M (antibody, V domains shown)
VH: B1 VH
VL: B1 VL with M90Y, S92M
B17: SA301a LC-Q89N (antibody, V domains shown)
VH: B1 VH
VL: B1 VL with Q88N, M90Y
B18: SA301a LC-Q89V (antibody, V domains shown)
VH: B1 VH
VL: B1 VL with Q88V, M90Y
B19: SA301a LC-S93D (antibody, V domains shown)
VH: B1 VH
VL: B1 VL with M90Y, S92D
B20: SA301a LC-Q89D (antibody, V domains shown)
VH: B1 VH
VL: B1 VL with Q88D, M90Y
B21: SA301a LC-S93G (antibody, V domains shown)
VH: B1 VH
VL: B1 VL with M90Y, S92G
B22: SA301a LC-Q89G (antibody, V domains shown)
VH: B1 VH
VL: B1 VL with Q88G, M90Y
B23: SA301a LC-S93A (antibody, V domains shown)
VH: B1 VH
VL: B1 VL with M90Y, S92A
B24: SA301a LC-H92T (antibody, V domains shown)
VH: B1 VH
VL: B1 VL with M90Y, H91T
B25: SA301a LC-H92V (antibody, V domains shown)
VH: B1 VH
VL: B1 VL with M90Y, H91V
B26: SA301a LC-S93P (antibody, V domains shown)
VH: B1 VH
VL: B1 VL with M90Y, S92P
B27: SA301a LC-S93Y (antibody, V domains shown)
VH: B1 VH
VL: B1 VL with M90Y, S92Y
B28: SA301a LC-Q89Y (antibody, V domains shown)
VH: B1 VH
VL: B1 VL with Q88Y, M90Y
B29: SA301a LC-Q89L (antibody, V domains shown)
VH: B1 VH
VL: B1 VL with Q88L, M90Y
B30: SA301a LC-Y91S (antibody, name in Kabat numbering, V domains shown)
VH: B1 VH
VL: B1 VL with M90S
notes: IgG1 kappa
B31: SA301a LC-Y91T (antibody, name in Kabat numbering, V domains shown)
VH: B1 VH
VL: B1 VL with M90T
notes: IgG1 kappa
B32: SA301a LC-Y91V (antibody, name in Kabat numbering, V domains shown)
VH: B1 VH
VL: B1 VL with M90V
notes: IgG1 kappa
B33: SA301a LC-Y91Q (antibody, name in Kabat numbering, V domains shown)
VH: B1 VH
VL: B1 VL with M90Q
notes: IgG1 kappa
B34: SA301a LC-Y91R (antibody, name in Kabat numbering, V domains shown)
VH: B1 VH
VL: B1 VL with M90R
notes: IgG1 kappa
B35: SA301a LC-Y91P (antibody, name in Kabat numbering, V domains shown)
VH: B1 VH
VL: B1 VL with M90P
notes: IgG1 kappa

target: T1, human IL-18BP (human, UniProt O95998 31-194); experiment: BLI, apparent KD
T1 construct: UniProt printed as 095998; also called hIL-18BP
T1 sequence: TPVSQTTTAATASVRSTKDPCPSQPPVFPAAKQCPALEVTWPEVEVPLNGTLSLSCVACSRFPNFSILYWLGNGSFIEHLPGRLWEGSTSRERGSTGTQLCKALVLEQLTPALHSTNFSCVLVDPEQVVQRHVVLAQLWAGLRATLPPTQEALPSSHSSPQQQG

**Q.** For B1, which Kd is on record?
**A.** The Kd was 0.22 nM.

**Q.** Which Kd does the source give for B2 here?
**A.** Its Kd is 0.36 nM.

**Q.** Which Kd does the source give for B3 here?
**A.** The Kd was 0.15 nM.

**Q.** With B4 as the binder, how does the Kd read?
**A.** Its Kd is 0.21 nM.

**Q.** How did the Kd turn out when B5 was run?
**A.** Its Kd is 0.97 nM.

**Q.** For B6, which Kd is on record?
**A.** Its Kd is 0.46 nM.

**Q.** How did the Kd turn out when B7 was run?
**A.** Its Kd is 0.24 nM.

**Q.** For B8, which Kd is on record?
**A.** The Kd was 0.4 nM.

**Q.** How did the Kd turn out when B9 was run?
**A.** The Kd was 0.39 nM.

**Q.** Which Kd does the source give for B10 here?
**A.** The Kd was 0.49 nM.

**Q.** For B11, which Kd is on record?
**A.** Its Kd is 0.1 nM.

**Q.** How did the Kd turn out when B12 was run?
**A.** Its Kd is 0.95 nM.

**Q.** B13 was tested. Which Kd did it give?
**A.** Its Kd is 0.19 nM.

**Q.** Which Kd does the source give for B14 here?
**A.** Its Kd is 0.28 nM.

**Q.** How did the Kd turn out when B15 was run?
**A.** The Kd was 0.7 nM.

**Q.** How did the Kd turn out when B16 was run?
**A.** The Kd was 0.14 nM.

**Q.** Which Kd does the source give for B17 here?
**A.** Its Kd is 0.28 nM.

**Q.** With B18 as the binder, how does the Kd read?
**A.** Its Kd is 0.51 nM.

**Q.** For B19, which Kd is on record?
**A.** Its Kd is 0.23 nM.

**Q.** With B20 as the binder, how does the Kd read?
**A.** The Kd was 0.02 nM.

**Q.** Which Kd does the source give for B21 here?
**A.** The Kd was 0.08 nM.

**Q.** How did the Kd turn out when B22 was run?
**A.** The Kd was 0.32 nM.

**Q.** B23 was tested. Which Kd did it give?
**A.** The Kd was 0.52 nM.

**Q.** With B24 as the binder, how does the Kd read?
**A.** Its Kd is 0.15 nM.

**Q.** Which Kd does the source give for B25 here?
**A.** Its Kd is 0.2 nM.

**Q.** With B26 as the binder, how does the Kd read?
**A.** The Kd was 0.41 nM.

**Q.** B27 was tested. Which Kd did it give?
**A.** The Kd was 0.19 nM.

**Q.** How did the Kd turn out when B28 was run?
**A.** Its Kd is 0.35 nM.

**Q.** For B29, which Kd is on record?
**A.** The Kd was 0.85 nM.

**Q.** For B30, which Kd is on record?
**A.** Its Kd is 0.33 nM.

**Q.** B31 was tested. Which Kd did it give?
**A.** The Kd was 0.45 nM.

**Q.** B32 was tested. Which Kd did it give?
**A.** Its Kd is 1.85 nM.

**Q.** B33 was tested. Which Kd did it give?
**A.** The Kd was 0.24 nM.

**Q.** B34 was tested. Which Kd did it give?
**A.** Its Kd is 0.18 nM.

**Q.** Which Kd does the source give for B35 here?
**A.** Its Kd is 0.24 nM.
